Laboratory results from patent publication US12448436B2, “Antibody specifically binding to GRP94 or antigen-binding fragment thereof, and uses thereof” (KOOKMIN UNIVERSITY INDUSTRY ACADEMY COOPERATION FOUNDATION, priority 2020, dated 2025).

Assays:
[1] = target: recombinant monkey GRP94 (Macaca fascicularis, UniProt Q4R520); assay: ELISA binding to recombinant monkey GRP94
Procedure: Each well of 96-well plates was coated with 0.1 μg of recombinant human GRP94 (rhGRP94), blocked with 3% (w/v) bovine serum albumin (BSA) in phosphate buffered saline (PBS) for 2 hours at 37° C., and incubated with 100 μL of GRP94 targeting IgG (20 μg/mL) for 2 hours at 37° C. The plates were washed thrice with 0.05% PBS-T, and 100 μL of a 500:1 dilution of the secondary antibody anti-human Fc Ab (Sigma-Aldrich) was added to each well. Incubation at 37° C. for 1 hour was followed by three rounds of washing with 0.05% PBS-T. Then, 100 μL of 3,3′,5,5′-tetramethylbenzidine (1-step ultra TMB) substrate solution was added to each well. Finally, optical densities were measured at 450 nm using a microplate reader (Synergy H1, BioTek).
After 96-well plates were coated with BSA, recombinant human GRP94, recombinant rat GRP94, and recombinant monkey GRP94, their binding affinity for each antibody (B5, E5, 2H5, or 3G7) was measured by ELISA.

[2] = target: T1, rhGRP94 CTD fragment (part 4, Glu 602-Glu 799) (Homo sapiens, UniProt P14625); assay: Epitope comparison ELISA, rhGRP94 fragment part 4; assay type: binding; conditions: antibody 1 μg/mL, 100 ng fragment
T1 construct: Part; 4 (Glu 602-Glu 799) of the human GRP94 gene (Gene ID: 7184); made in house; host or cells: Expi293 expression system (pcDNA 3.4)
T1 sequence (P14625 602-799): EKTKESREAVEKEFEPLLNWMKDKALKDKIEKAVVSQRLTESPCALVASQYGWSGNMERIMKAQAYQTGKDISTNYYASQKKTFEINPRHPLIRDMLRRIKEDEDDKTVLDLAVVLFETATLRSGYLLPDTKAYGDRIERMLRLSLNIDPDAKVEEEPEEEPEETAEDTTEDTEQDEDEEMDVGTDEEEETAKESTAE
Excerpt: To determine which portion (or domain) of the GRP94 protein is bound by the developed antibodies, GRP94 fragments part. 1 and part. 4 were constructed wherein part. 1 was composed of the N-terminal domain (NTD), the Ca^2+ binding domain, the middle domain (MD), and the C-terminal domain (CTD) while part. 4 was derived from part. 1 by cutting off the NTD, the Ca^2+ binding domain, and the MD. In brief, Part. 1 (Asp 22-Glu 799) and Part. 4 (Glu 602-Glu 799) of the human GRP94 gene (Gene ID: 7184) were synthesized and subcloned into pcDNA 3.4 (Invitrogen) mammalian expression vector to finally recombinant DNAs. Using the Expi293 expression system (Invitrogen), the proteins were expressed and purified. The purified antigens part. 1 and part. 4 were analyzed for molecular weight by SDS-PAGE.
Next, ELISA was carried out to examine whether the four antibodies of the present disclosure bind to part 1 and part 4. First, 100 ng of each of the rhGRP94 fragment parts 1 and 4 was fixed to a high binding plate by incubation at 4° C. for 14 hours (overnight binding, 14 hrs). The same amount of BSA was used as a negative control. Then, the plate was blocked with 3% BSA, followed by incubation at 37° C. for 2 hours with 100 μL containing each of the anti-GRP94 antibodies (B5, E5, 2H5, and 3G7) of the present disclosure at a density of 1 μg/mL. After three rounds of washing with PBS-T, the plate was treated at 37° C. for 1 hour with a 5000:1 dilution of anti-Fc-HRP (Catalog #31423 Invitrogen). Color development was induced using 1-step-ultra TMB (Invitrogen) for 10 minutes and then terminated with […] (2N). Absorbance at 450 nm was read.

recombinant monkey GRP94, sequence (Q4R520 22-804): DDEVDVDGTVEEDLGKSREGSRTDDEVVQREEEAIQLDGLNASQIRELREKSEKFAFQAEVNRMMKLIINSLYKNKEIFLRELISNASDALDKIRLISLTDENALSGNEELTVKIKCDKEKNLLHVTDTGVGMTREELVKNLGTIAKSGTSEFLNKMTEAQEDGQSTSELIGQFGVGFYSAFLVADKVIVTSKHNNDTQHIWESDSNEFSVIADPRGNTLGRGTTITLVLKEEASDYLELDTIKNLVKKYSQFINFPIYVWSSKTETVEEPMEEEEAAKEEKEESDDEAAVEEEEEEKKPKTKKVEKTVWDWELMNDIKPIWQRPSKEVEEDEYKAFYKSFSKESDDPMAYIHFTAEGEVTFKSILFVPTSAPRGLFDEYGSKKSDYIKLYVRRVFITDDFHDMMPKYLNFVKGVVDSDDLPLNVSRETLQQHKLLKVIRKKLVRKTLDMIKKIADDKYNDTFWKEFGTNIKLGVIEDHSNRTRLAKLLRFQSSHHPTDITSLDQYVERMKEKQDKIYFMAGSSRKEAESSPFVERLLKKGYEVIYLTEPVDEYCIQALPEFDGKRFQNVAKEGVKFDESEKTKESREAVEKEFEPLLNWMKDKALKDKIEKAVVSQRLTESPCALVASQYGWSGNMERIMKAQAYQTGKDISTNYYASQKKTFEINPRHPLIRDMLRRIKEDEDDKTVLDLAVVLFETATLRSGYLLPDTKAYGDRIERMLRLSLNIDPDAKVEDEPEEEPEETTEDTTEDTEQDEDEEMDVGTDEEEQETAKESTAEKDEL

binding to recombinant monkey GRP94 [1] | binding to part 4 (Glu 602-Glu 799) [2] | Molecule
bind | did not bind | B5: anti-GRP94 human IgG antibody; CDRs SEQ ID NOS: 1 to 6, VH SEQ ID NO: 7, VL SEQ ID NO: 8 (antibody, V domains shown, Amino acid sequence of heavy chain variable of GRP94 B5; Amino acid sequence of light chain variable of GRP94 B5) VH: EVQLLESGGGLVQPGGSLRLSCAASGFTFSNYYMSWVRQAPGKGLEWVSGIYPNSGSTYYADSVKGRFTISRDNSKNTLYLQMNSLRAEDTAVYYCARDPLHPARFPFDYWGQGTLVTVSS VL: QSVLTQPPSASGTPGQRVTISCTGSSSNIGNNAVSWYQQLPGTAPKLLIYADSHRPSGVPDRFSGSKSGTSASLAISGLRSEDEADYYCGAWDASLNAYVFGGGTKLTVL
bind | did not bind | 3G7: anti-GRP94 human IgG antibody; CDRs SEQ ID NOS: 25 to 30, VH SEQ ID NO: 31, VL SEQ ID NO: 32 (antibody, V domains shown, Amino acid sequence of heavy chain variable of GRP94 3G7; Amino acid sequence of light chain variable of GRP94 3G7) VH: EVQLLESGGGLVQPGGSLRLSCAASGFTFSNYSMSWVRQAPGKGLEWVSGIYYGSGNKYYADSVKGRFTISRDNSKNTLYLQMNSLRAEDTAVYYCAKNLASFDYWGQGTLVTVSS VL: QSVLTQPPSASGTPGQRVTISCSGSSSNIGSNSVNWYQQLPGTAPKLLIYSNSHRPSGVPDRFSGSKSGTSASLAISGLRSEDEADYYCGTWDSSLSGYVFGGGTKLTVL
bind | did not bind | E5: anti-GRP94 human IgG antibody; CDRs SEQ ID NOS: 9 to 14, VH SEQ ID NO: 15, VL SEQ ID NO: 16 (antibody, V domains shown, Amino acid sequence of heavy chain variable of GRP94 E5; Amino acid sequence of light chain variable of GRP94 E5) VH: EVQLLESGGGLVQPGGSLRLSCAASGFTFSNYAMSWVRQAPGKGLEWVSGISSSSGSTYYADSVKGRFTTSRDNSKNTLYLQMNSLRAEDTAVYYCARDRHPFSPNWFDYWGQGTLVTVSS VL: QSVLTQPPSASGTPGQRVTISCSGSPSNIGSNTVTWYQQLPGTAPKLLIYADSHRPSGVPDRFSGSKSGTSASLAISGLRSEDEADYYCASWDDSLNGYVFGGGTKLTVL
